For experiment [1], the target named is T1, SMAD2 protein (mouse, UniProt Q62432 2-467).
T1 construct: Endogenous protein in cell lysates
Briefly: co-immunoprecipitation with anti-SMAD2 antibody from TGFβ1-stimulated mouse WT primary cardiac fibroblasts, western blot (FIG. 16D).

Experiment [2] concerns the target T1, SMAD2 protein. The experiment is described as follows: co-immunoprecipitation with anti-FLAG antibody from NIH-3T3 lysates, western blot (FIG. 16C).

Residue numbers refer to the chain shown, from its start.

T1 sequence (Q62432 2-467 limits assumed): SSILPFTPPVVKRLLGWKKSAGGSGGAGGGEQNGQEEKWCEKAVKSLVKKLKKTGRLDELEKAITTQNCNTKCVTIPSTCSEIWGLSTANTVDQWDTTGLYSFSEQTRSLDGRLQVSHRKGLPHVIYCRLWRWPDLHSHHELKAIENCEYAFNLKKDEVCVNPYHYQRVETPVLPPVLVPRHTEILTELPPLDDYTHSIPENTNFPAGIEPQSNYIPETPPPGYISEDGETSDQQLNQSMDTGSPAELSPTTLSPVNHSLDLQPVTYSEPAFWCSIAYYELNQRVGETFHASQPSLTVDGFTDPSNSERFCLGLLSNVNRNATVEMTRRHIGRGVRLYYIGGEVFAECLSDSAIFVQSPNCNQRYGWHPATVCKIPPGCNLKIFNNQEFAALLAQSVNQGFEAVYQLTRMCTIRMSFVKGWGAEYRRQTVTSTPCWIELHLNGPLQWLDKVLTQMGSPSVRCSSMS

B1: WWP2-C, endogenous in mouse WT primary cardiac fibroblasts (enzyme, UniProt Q9DBH0 440-870, looked up)
chain: MIQEPALPPGWEMKYTSEGVRYFVDHNTRTTTFKDPRPGFESGTKQGSPGAYDRSFRWKYHQFRFLCHSNALPSHVKISVSRQTLFEDSFQQIMNMKPYDLRRRLYIIMRGEEGLDYGGIAREWFFLLSHEVLNPMYCLFEYAGKNNYCLQINPASSINPDHLTYFRFIGRFIAMALYHGKFIDTGFTLPFYKRMLNKRPTLKDLESIDPEFYNSIVWIKENNLEECGLELFFIQDMEILGKVTTHELKEGGENIRVTEENKEEYIMLLTDWRFTRGVEEQTKAFLDGFNEVAPLEWLRYFDEKELELMLCGMQEIDMSDWQKNAIYRHYTKSSKQIQWFWQVVKEMDNEKRIRLLQFVTGTCRLPVGGFAELIGSNGPQKFCIDRVGKETWLPRSHTCFNRLDLPPYKSYEQLKEKLLYAIEETEGFGQE
Regarding B1, the binding result with SMAD2 protein [1] is listed as “no binding”.

B2: FLAG-tagged WWP2-C (enzyme)
chain: B1 chain with F232Y, N254S, N324S, A325T, S333N, R386K, K415R
notes: Expressed from a plasmid in NIH-3T3 mouse fibroblasts; The position of the FLAG tag is unknown; also called WWP2-Flag isoforms; C-terminal isoform; not shown: FLAG tag
On to B2, for which the binding result with SMAD2 protein [2] is on record as “no binding”.

The values above are taken from patent publication US20260201389A1 (NATIONAL UNIVERSITY OF SINGAPORE, published 2026).
